Data from US20250019438A1 (AstraZeneca / MedImmune, published 2025).
Where a chain is given by its changes, count along the chain named.

B1: EGFR-CD3 DuetMab with anti-CD3 variant AZ Vκ 17 + AZ VH SN82 (bispecific antibody, part only; not given: anti-EGFR arm, constant regions, V domains shown, not shown: another chain or arm of the molecule; a dimerising Fc or GST; small tags and cut ends)
VH: EVQLVESGGALVKPGGSLRLSCAASGFTFSNAWMHWVRQAPGKQLEWVAQIKDRSQTYATYYAESVKGRFTISRDDSKNTLYLQMNSLKTEDTAVYYCRGVYYANTPFDYWGQGTLVTVSS
VL: DIVMTQSPLSLPVTPGEPASISCRSSQSLVHNTGNTYLSWYLQKPGQSPQSLIYKVSNRASGVPDRFSGSGSGTDFTLKISRVEAEDVGVYYCGQGTQAPFTFGSGTKVEIK
B2: EGFR-CD3 DuetMab with anti-CD3 variant AZ Vκ 17 + AZ VH E75 (bispecific antibody, part only; not given: anti-EGFR arm, constant regions, V domains shown, not shown: another chain or arm of the molecule; a dimerising Fc or GST; small tags and cut ends)
VH: B1 VH with S30T, N31E, T106A
VL: B1 VL
B3: EGFR-CD3 DuetMab with anti-CD3 variant AZ Vκ 17 + AZ VH E79 (bispecific antibody, part only; not given: anti-EGFR arm, constant regions, V domains shown, not shown: another chain or arm of the molecule; a dimerising Fc or GST; small tags and cut ends)
VH: B1 VH with S30T, N31E, N105V
VL: B1 VL
B4: EGFR-CD3 DuetMab with anti-CD3 variant AZ Vκ 17 + AZ VH E82 (bispecific antibody, part only; not given: anti-EGFR arm, constant regions, V domains shown, not shown: another chain or arm of the molecule; a dimerising Fc or GST; small tags and cut ends)
VH: B1 VH with S30T, N31E
VL: B1 VL
B5: EGFR-CD3 DuetMab with anti-CD3 variant AZ Vκ 26 + AZ VH R75 (bispecific antibody, part only; not given: anti-EGFR arm, constant regions, V domains shown, not shown: another chain or arm of the molecule; a dimerising Fc or GST; small tags and cut ends)
VH: B1 VH with S30T, N31R, T106A
VL: B1 VL with T102S
B6: EGFR-CD3 DuetMab with anti-CD3 variant AZ Vκ 26 + AZ VH R79 (bispecific antibody, part only; not given: anti-EGFR arm, constant regions, V domains shown, not shown: another chain or arm of the molecule; a dimerising Fc or GST; small tags and cut ends)
VH: B1 VH with S30T, N31R, N105V
VL: B1 VL with T102S
B7: EGFR-CD3 DuetMab with anti-CD3 variant AZ Vκ 26 + AZ VH R82 (bispecific antibody, part only; not given: anti-EGFR arm, constant regions, V domains shown, not shown: another chain or arm of the molecule; a dimerising Fc or GST; small tags and cut ends)
VH: B1 VH with S30T, N31R
VL: B1 VL with T102S
B8: EGFR-CD3 DuetMab with anti-CD3 variant AZ Vκ 26 + AZ VH SN75 (bispecific antibody, part only; not given: anti-EGFR arm, constant regions, V domains shown, not shown: another chain or arm of the molecule; a dimerising Fc or GST; small tags and cut ends)
VH: B1 VH with T106A
VL: B1 VL with T102S
B9: EGFR-CD3 DuetMab with anti-CD3 variant AZ Vκ 26 + AZ VH SN79 (bispecific antibody, part only; not given: anti-EGFR arm, constant regions, V domains shown, not shown: another chain or arm of the molecule; a dimerising Fc or GST; small tags and cut ends)
VH: B1 VH with N105V
VL: B1 VL with T102S
B10: EGFR-CD3 DuetMab with anti-CD3 variant AZ Vκ 26 + AZ VH SN82 (bispecific antibody, part only; not given: anti-EGFR arm, constant regions, V domains shown, not shown: another chain or arm of the molecule; a dimerising Fc or GST; small tags and cut ends)
VH: B1 VH
VL: B1 VL with T102S
B11: EGFR-CD3 DuetMab with anti-CD3 variant AZ Vκ 26 + AZ VH E75 (bispecific antibody, part only; not given: anti-EGFR arm, constant regions, V domains shown, not shown: another chain or arm of the molecule; a dimerising Fc or GST; small tags and cut ends)
VH: B1 VH with S30T, N31E, T106A
VL: B1 VL with T102S
B12: EGFR-CD3 DuetMab with anti-CD3 variant AZ Vκ 26 + AZ VH E79 (bispecific antibody, part only; not given: anti-EGFR arm, constant regions, V domains shown, not shown: another chain or arm of the molecule; a dimerising Fc or GST; small tags and cut ends)
VH: B1 VH with S30T, N31E, N105V
VL: B1 VL with T102S
B13: EGFR-CD3 DuetMab with anti-CD3 variant AZ Vκ 26 + AZ VH E82 (bispecific antibody, part only; not given: anti-EGFR arm, constant regions, V domains shown, not shown: another chain or arm of the molecule; a dimerising Fc or GST; small tags and cut ends)
VH: B1 VH with S30T, N31E
VL: B1 VL with T102S
B14: EGFR-CD3 DuetMab with anti-CD3 variant AZ Vκ 29 + AZ VH R75 (bispecific antibody, part only; not given: anti-EGFR arm, constant regions, V domains shown, not shown: another chain or arm of the molecule; a dimerising Fc or GST; small tags and cut ends)
VH: B1 VH with S30T, N31R, T106A
VL: B1 VL with A99F
B15: EGFR-CD3 DuetMab with anti-CD3 variant AZ Vκ 29 + AZ VH R79 (bispecific antibody, part only; not given: anti-EGFR arm, constant regions, V domains shown, not shown: another chain or arm of the molecule; a dimerising Fc or GST; small tags and cut ends)
VH: B1 VH with S30T, N31R, N105V
VL: B1 VL with A99F
B16: EGFR-CD3 DuetMab with anti-CD3 variant AZ Vκ 29 + AZ VH R82 (bispecific antibody, part only; not given: anti-EGFR arm, constant regions, V domains shown, not shown: another chain or arm of the molecule; a dimerising Fc or GST; small tags and cut ends)
VH: B1 VH with S30T, N31R
VL: B1 VL with A99F

Biological target: Biotinylated recombinant human CD3εδ (Acro Biosystems, CDD-H82W6) (human) (UniProt P07766)
Assay: Octet BLI, biotinylated CD3εδ on streptavidin sensors, 1:1 model

Sequence of Biotinylated recombinant human CD3εδ (Acro Biosystems, CDD-H82W6) (human) (P07766 23-126, stated change not applied, chain 1 of 2): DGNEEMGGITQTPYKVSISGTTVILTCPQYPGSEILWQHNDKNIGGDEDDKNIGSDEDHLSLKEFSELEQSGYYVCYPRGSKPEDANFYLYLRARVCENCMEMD
Sequence of Biotinylated recombinant human CD3εδ (Acro Biosystems, CDD-H82W6) (human) (P04234 22-105, stated change not applied, chain 2 of 2, further chain): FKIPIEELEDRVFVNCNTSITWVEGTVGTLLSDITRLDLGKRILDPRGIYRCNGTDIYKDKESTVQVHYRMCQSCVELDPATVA

Row | Binder | Kd [nM] | koff [s⁻¹] | kon [M⁻¹ s⁻¹]
1 | B1 | 1640 | 0.0149 | 9100
2 | B2 | 2790 | 0.0198 | 7100
3 | B3 | 5620 | 0.0497 | 8850
4 | B4 | 4610 | 0.033 | 7140
5 | B5 | 217 | 0.00605 | 27900
6 | B6 | 712 | 0.0233 | 32700
7 | B7 | 411 | 0.00711 | 17300
8 | B8 | 949 | 0.0155 | 16300
9 | B9 | 1930 | 0.0361 | 18700
10 | B10 | 1710 | 0.0212 | 12400
11 | B11 | 2280 | 0.0172 | 7540
12 | B12 | 4660 | 0.0511 | 11000
13 | B13 | 3920 | 0.0287 | 7330
14 | B14 | 224 | 0.0119 | 53300
15 | B15 | 878 | 0.0487 | 55500
16 | B16 | 595 | 0.0231 | 38800
